{
  "source": "patent US20080166698A1",
  "about": "(Genentech, published 2008)",
  "biological_target": "T1, recombinant human DAF (human, UniProt P08174 35-353, limits assumed)",
  "T1 construct": "also called decay accelerating factor; CD55",
  "T1 sequence (looked up)": "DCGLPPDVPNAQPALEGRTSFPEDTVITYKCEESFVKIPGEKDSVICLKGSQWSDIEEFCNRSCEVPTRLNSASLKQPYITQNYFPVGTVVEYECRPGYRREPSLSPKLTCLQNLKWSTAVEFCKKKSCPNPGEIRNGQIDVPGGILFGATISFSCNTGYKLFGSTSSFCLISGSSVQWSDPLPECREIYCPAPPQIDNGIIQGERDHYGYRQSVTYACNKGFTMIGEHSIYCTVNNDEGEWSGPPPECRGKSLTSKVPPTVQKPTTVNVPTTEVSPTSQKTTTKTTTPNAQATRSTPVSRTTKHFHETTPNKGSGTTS",
  "test": "SPR (BIACORE 1000), recombinant human DAF on a CM-5 chip, LU30 scFv injected",
  "protocol": "Affinity Measurements. Kinetic measurements were made by surface plasmon resonance using a BIACORE 1000™ Biosensor (Biacore, AB Uppsala, Sweden). CM-5 chips were functionalized with 350 response units recombinant human DAF in 10 mM sodium acetate (pH 4.6) or 8,000 response units bovine serum albumin as a negative control. The DAF-derivatized chip was saturated with LU30 scFv (25-100 nM) by injecting this fragment at 10 :l/min in PBS containing 0.5% (w/v) bovine serum albumin and 0.05% (v/v) TWEEN 20™. The resultant sensorgrams were analyzed using BIAEVALUATION™ software 3.0.",
  "data": [
    {"binder": "LU30 scFv (scFv, V domains shown, Human scFv from a naive phage library, secreted from E. coli and purified through its His tag; also called clone LU30; LU30 scFv fragment; not shown: scFv linker between the domains, domain order, and the His tag) VH: QVKLQESGGGLVQPGGSLKLSCAASGFTFSGYGMSWIRQTPDKRLEWVATINSGGSYTYYSDSVKGRFTISRDNVKNTLYLQMSSLKSEDTAMYYCARRNGTLYYYLMDYWGRGTLVTVSS VL: QSVLTQPPSASGSPGQSVTISCTGTSSDVGGYNYVSWYQQHPGKAPKFMIYDVSKRPSGVSNRFSGSKSGNTASLTISGVQAEDEADYYCSSYTSASTVIFGGGTKLTVL", "values": [
      {"measurement": "Kd", "result": 13, "unit": "nM"},
      {"measurement": "koff", "result": 0.0045, "unit": "s⁻¹"},
      {"measurement": "kon", "result": 340000, "unit": "M⁻¹ s⁻¹"}
    ]}
  ]
}
